Measurements as given in patent publication US20200268901A1 (Bristol-Myers Squibb, published 2020).
“And” between values parts separate entries of the source, which are not always exact repeats. Equal entries are not always repeated. Where two headings read alike, the source gives them in different places.

T1: human CD73 on Calu6 cells (human, UniProt P21589 27-549)
T1 sequence (looked up): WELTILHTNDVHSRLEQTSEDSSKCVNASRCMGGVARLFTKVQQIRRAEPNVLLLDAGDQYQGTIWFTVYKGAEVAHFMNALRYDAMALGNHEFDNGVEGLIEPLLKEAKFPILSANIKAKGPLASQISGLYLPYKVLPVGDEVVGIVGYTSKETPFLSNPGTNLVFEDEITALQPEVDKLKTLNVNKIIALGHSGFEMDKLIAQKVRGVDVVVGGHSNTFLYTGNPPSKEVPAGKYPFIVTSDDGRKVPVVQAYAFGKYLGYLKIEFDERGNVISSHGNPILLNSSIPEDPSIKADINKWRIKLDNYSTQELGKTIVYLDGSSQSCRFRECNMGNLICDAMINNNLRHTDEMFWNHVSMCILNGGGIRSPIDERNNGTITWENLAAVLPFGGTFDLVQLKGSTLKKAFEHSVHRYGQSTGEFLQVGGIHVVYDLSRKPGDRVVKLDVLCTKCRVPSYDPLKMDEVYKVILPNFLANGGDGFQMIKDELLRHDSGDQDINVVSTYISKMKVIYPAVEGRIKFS

T2: N-hCD73-his (N-terminal domain of human CD73, residues 26-336) (human, UniProt P21589 26-336)
T2 construct: not shown: his tag
T2 sequence (looked up): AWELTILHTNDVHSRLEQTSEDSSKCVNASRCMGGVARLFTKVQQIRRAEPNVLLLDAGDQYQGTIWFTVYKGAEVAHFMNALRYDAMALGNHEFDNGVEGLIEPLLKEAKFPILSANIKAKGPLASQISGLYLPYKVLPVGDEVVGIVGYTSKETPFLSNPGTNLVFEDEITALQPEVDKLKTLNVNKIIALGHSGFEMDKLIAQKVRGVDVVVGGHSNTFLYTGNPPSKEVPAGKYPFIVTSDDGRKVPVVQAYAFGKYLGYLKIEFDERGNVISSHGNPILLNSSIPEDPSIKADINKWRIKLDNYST


Legend:
[1] = target: T1, human CD73 on Calu6 cells; assay: cell-based or functional assay
[2] = target: T1, human CD73 on Calu6 cells; assay: cell-based or functional assay; remark: listed apart in the source
[3] = target: T1, human CD73 on Calu6 cells; assay: cell-based or functional assay; remark: listed apart in the source
[4] = target: T2, N-hCD73-his (N-terminal domain of human …); assay: SPR (Biacore T100), mAb captured on protein A, N-hCD73-his analyte
Procedure: The affinity of the antibodies for human CD73 was measured to determine whether the change of the constant region affects them. The affinities were determined by Surface Plasmon Resonance (SPR) as follows. […] For these experiments, protein A (Pierce) was immobilized to a density of 3000-4000 RU on flow cells 1-4 of a CM5 sensor chip (GE Healthcare) using standard ethyl(dimethylaminopropyl) carbodiimide (EDC)/N-hydroxysuccinimide (NHS) chemistry, with ethanolamine blocking, in a running buffer of 0.01 M HEPES pH 7.4, 0.15 M NaCl, 3 mM EDTA, 0.005% v/v tween 20. […] The running buffer for the kinetic experiments was 10 mM sodium phosphate, 130 mM sodium chloride, 0.05% tween 20, pH 7.1. The surfaces were regenerated after each cycle using two 30 s pulses of 10 mM glycine pH 1.5 at a flow rate of 30 μl/min. Sensogram data was double-referenced and then fitted to a 1:1 Langmuir model using Biacore T100 evaluation software v2.0.4, to determine the association rate constant (ka), the dissociation rate constant (kd), and the equilibrium dissociation constant (KD).

[5] = target: T1, human CD73 on Calu6 cells; assay: cell-based or functional assay; remark: listed apart in the source

Row | Binder | T1/2 (hr) of CD73 internalization, Calu6 cells [1] [h] | T1/2 (hr) of CD73 internalization, NCI-H292 cells [1] [h] | Ymax (%) of CD73 internalization, Calu6 cells [1] [%] | Ymax (%) of CD73 internalization, NCI-H292 cells [1] [%] | EC50 (nM) of CD73 internalization, Calu6 cells, 2 h [3] [nM] | Ymax of CD73 internalization (% of 100 nM 11F11) [3] [%] | Kd [4] | koff [4] | kon [4] | other results
1 | CD73.4-IgG2.5-plusTHT (antibody) heavy: QVQLVESGGGVVQPGRSLRLSCAASGFTFSNYGMHWVRQAPGKGLEWVAVILYDGSNKYYPDSVKGRFTISRDNSKNTLYLQMNSLRAEDTAVYYCARGGSSWYPDSFDIWGQGTMVTVSSASTKGPSVFPLAPSSRSTSESTAALGCLVKDYFPEPVTVSWNSGALTSGVHTFPAVLQSSGLYSLSSVVTVPSSNFGTQTYTCNVDHKPSNTKVDKTVERKCCVETHTCPPCPAPPVAGPSVFLFPPKPKDTLMISRTPEVTCVVVDVSHEDPEVQFNWYVDGVEVHNAKTKPREEQFNSTFRVVSVLTVVHQDWLNGKEYKCKVSNKGLPAPIEKTISKTKGQPREPQVYTLPPSREEMTKNQVSLTCLVKGFYPSDIAVEWESNGQPENNYKTTPPMLDSDGSFFLYSKLTVDKSRWQQGNVFSCSVMHEALHNHYTQKSLSLSPGK light: not shown | 0.287 | 0.257 | 80.2 | 89.6 |  |  |  |  |  | 
2 | CD73.4-IgG2.3G1.1f-KH (antibody, also called CD73.4-IgG2-C219S-IgG1.1f; CD73.4-IgG2CS-IgG1.1f) heavy: QVQLVESGGGVVQPGRSLRLSCAASGFTFSNYGMHWVRQAPGKGLEWVAVILYDGSNKYYPDSVKGRFTISRDNSKNTLYLQMNSLRAEDTAVYYCARGGSSWYPDSFDIWGQGTMVTVSSASTKGPSVFPLAPCSRSTSESTAALGCLVKDYFPEPVTVSWNSGALTSGVHTFPAVLQSSGLYSLSSVVTVPSSNFGTQTYTCNVDHKPSNTKVDKTVERKSCVECPPCPAPPVAGPSVFLFPPKPKDTLMISRTPEVTCVVVDVSHEDPEVKFNWYVDGVEVHNAKTKPREEQYNSTYRVVSVLTVLHQDWLNGKEYKCKVSNKALPSSIEKTISKAKGQPREPQVYTLPPSREEMTKNQVSLTCLVKGFYPSDIAVEWESNGQPENNYKTTPPVLDSDGSFFLYSKLTVDKSRWQQGNVFSCSVMHEALHNHYTQKSLSLSPGK light: not shown | 0.351 | 0.276 | 81 | 90.3 |  |  |  |  |  | T1/2 (hr) of CD73 internalization, Calu6 cells [2]: 0.566 h; T1/2 (hr) of CD73 internalization, NCI-H292 cells [2]: 0.263 h; T1/2 (hr) of CD73 internalization, NCI-H1437 cells [2]: 0.316 h; T1/2 (hr) of CD73 internalization, NCI-H1437 cells (no wash) [2]: 0.342 h; T1/2 (hr) of CD73 internalization, SNU-C1 cells [2]: 0.495 h; T1/2 (hr) of CD73 internalization, SNU-C1 cells (no wash) [2]: 1.02 h; Ymax (%) of CD73 internalization, Calu6 cells [2]: 76.8%; Ymax (%) of CD73 internalization, NCI-H292 cells [2]: 77.6%
3 | CD73.4-IgG2.5G1.1f-KH (antibody) heavy: QVQLVESGGGVVQPGRSLRLSCAASGFTFSNYGMHWVRQAPGKGLEWVAVILYDGSNKYYPDSVKGRFTISRDNSKNTLYLQMNSLRAEDTAVYYCARGGSSWYPDSFDIWGQGTMVTVSSASTKGPSVFPLAPSSRSTSESTAALGCLVKDYFPEPVTVSWNSGALTSGVHTFPAVLQSSGLYSLSSVVTVPSSNFGTQTYTCNVDHKPSNTKVDKTVERKCCVECPPCPAPPVAGPSVFLFPPKPKDTLMISRTPEVTCVVVDVSHEDPEVKFNWYVDGVEVHNAKTKPREEQYNSTYRVVSVLTVLHQDWLNGKEYKCKVSNKALPSSIEKTISKAKGQPREPQVYTLPPSREEMTKNQVSLTCLVKGFYPSDIAVEWESNGQPENNYKTTPPVLDSDGSFFLYSKLTVDKSRWQQGNVFSCSVMHEALHNHYTQKSLSLSPGK light: not shown | 0.353 | 0.299 | 79.6 | 90.9 |  |  |  |  |  | 
4 | CD73.4-IgG2.5 (antibody) heavy: QVQLVESGGGVVQPGRSLRLSCAASGFTFSNYGMHWVRQAPGKGLEWVAVILYDGSNKYYPDSVKGRFTISRDNSKNTLYLQMNSLRAEDTAVYYCARGGSSWYPDSFDIWGQGTMVTVSSASTKGPSVFPLAPSSRSTSESTAALGCLVKDYFPEPVTVSWNSGALTSGVHTFPAVLQSSGLYSLSSVVTVPSSNFGTQTYTCNVDHKPSNTKVDKTVERKCCVECPPCPAPPVAGPSVFLFPPKPKDTLMISRTPEVTCVVVDVSHEDPEVQFNWYVDGVEVHNAKTKPREEQFNSTFRVVSVLTVVHQDWLNGKEYKCKVSNKGLPAPIEKTISKTKGQPREPQVYTLPPSREEMTKNQVSLTCLVKGFYPSDIAVEWESNGQPENNYKTTPPMLDSDGSFFLYSKLTVDKSRWQQGNVFSCSVMHEALHNHYTQKSLSLSPGK light: not shown | 0.348 | 0.306 | 79 | 89.6 |  |  |  |  |  | 
5 | 11F11 (antibody, human IgG2, kappa, V domains shown, anti-CD73, IgG2; also called 11F11(IgG2)) VH: QVQLVESGGGVVQPGRSLRLSCATSGFTFSNYGMHWVRQAPGKGLEWVAVILYDGSNKYYPDSVKGRFTISRDNSKNTLYLQMNSLRAEDTAVYYCARGGSSWYPDSFDIWGQGTMVTVSS VL: DIQMTQSPSSLSASVGDRVTITCRASQGISSWLAWYQQKPEKAPKSLIYAASSLQSGVPSRFSGSGSGTDFTLTISSLQPEDFATYYCQQYNSYPLTFGGGTKVEIKR |  |  |  |  | 0.58 | 98 | 1.6 nM and 0.56 nM | 0.00042 s⁻¹ and 0.00016 s⁻¹ | 260000 M⁻¹ s⁻¹ and 290000 M⁻¹ s⁻¹ | 
6 | CD73.10-IgG2-C219S (antibody, anti-CD73; also called CD73.10-IgG2CS) heavy: QVQLVESGGGVVQPGRSLRLSCAASGFTFSNYGMHWVRQAPGKGLEWVAVIWYDESNKYYPDSVKGRFTISRDNSKNTLYLQMNSLRAEDTAVYYCARGGSSWYPDSFDIWGQGTMVTVSSASTKGPSVFPLAPCSRSTSESTAALGCLVKDYFPEPVTVSWNSGALTSGVHTFPAVLQSSGLYSLSSVVTVPSSNFGTQTYTCNVDHKPSNTKVDKTVERKSCVECPPCPAPPVAGPSVFLFPPKPKDTLMISRTPEVTCVVVDVSHEDPEVQFNWYVDGVEVHNAKTKPREEQFNSTFRVVSVLTVVHQDWLNGKEYKCKVSNKGLPAPIEKTISKTKGQPREPQVYTLPPSREEMTKNQVSLTCLVKGFYPSDIAVEWESNGQPENNYKTTPPMLDSDGSFFLYSKLTVDKSRWQQGNVFSCSVMHEALHNHYTQKSLSLSPG light: not shown |  |  |  |  | 0.67 | 99 | 6.2 nM and 8.3 nM | 0.0014 s⁻¹ and 0.0018 s⁻¹ | 220000 M⁻¹ s⁻¹ | % internalization, Calu6 cells [5]: 91%; % internalization, H228 cells [5]: 93%; % internalization, H2030 cells [5]: 85%; % internalization, HCC15 cells [5]: 91%; T1/2 min of internalization, Calu6 cells [5]: 3 min; T1/2 min of internalization, H228 cells [5]: 9.7 min; T1/2 min of internalization, H2030 cells [5]: 3.3 min; T1/2 min of internalization, HCC15 cells [5]: 2.6 min
